Our source for the Kd values is doi:10.1101/2021.10.11.463801 (2021).

In general, Kd refers to the constant that tells how readily two partners part at equilibrium. A higher Kd goes with weaker binding.

For this assay, the target named is T1, JIP4[1-103] (human, UniProt O60271-1 1-103).
T1 chain: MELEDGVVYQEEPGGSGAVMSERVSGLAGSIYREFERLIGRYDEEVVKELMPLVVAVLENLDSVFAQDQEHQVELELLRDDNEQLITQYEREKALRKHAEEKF
As to the kind of experiment: ITC. In general terms: In ITC the heat of successive injections is recorded.

B1: DLIC1[388-523] (domain or fragment)
chain: PTAAGRPVDASPRVPGGSPRTPNRSVSSNVASVSPIPAGSKKIDPNMKAGATSEGVLANFFNSLLSKKTGSPGGPGVSGGSPAGGAGGGSSGLPPSTKKSGQKPVLDVHAELDRITRKPVTVSPTTPTSPTEGEAS
In turn, B1 displayed a Kd of 4.5 µM.
